The values below come from US20210101970A1 (Pfizer, published 2021).

Experiment [1] concerns the target T1, CXCR4 (human, UniProt P61073 1-352).
T1 construct: whole, on cells
The experiment is described as follows: flow cytometry (GMFI) on Jurkat cells, which express CXCR4; chimeric antibody, goat anti-human PE. On the procedure: (§1) To determine the specificity of the antibodies for CXCR5, the binding of the antibodies to cells expressing other […] was assessed. Briefly, FlowCellect chemokine receptor cell lines expressing CXCR1, CXCR2, or CXCR3 (EMD Millipore, Billerica, Mass.), and Jurkats (ATCC, Manassas, Va.), which express CXCR4, were stained with 5 μg/ml or 10 μg/ml of each anti-CXCR5 chimeric antibody. The cells were then incubated with goat anti-human conjugated with PE (Southern Biotech, Birmingham, Ala.) prior to analysis by flow cytometry using a FACSVerse Analyzer (BD Biosciences, Franklin Lakes, N.J.).

Experiment [2] addresses T2, CXCR2 (human, UniProt P25025 1-360).
T2 construct: whole, on cells
T2 sequence (looked up): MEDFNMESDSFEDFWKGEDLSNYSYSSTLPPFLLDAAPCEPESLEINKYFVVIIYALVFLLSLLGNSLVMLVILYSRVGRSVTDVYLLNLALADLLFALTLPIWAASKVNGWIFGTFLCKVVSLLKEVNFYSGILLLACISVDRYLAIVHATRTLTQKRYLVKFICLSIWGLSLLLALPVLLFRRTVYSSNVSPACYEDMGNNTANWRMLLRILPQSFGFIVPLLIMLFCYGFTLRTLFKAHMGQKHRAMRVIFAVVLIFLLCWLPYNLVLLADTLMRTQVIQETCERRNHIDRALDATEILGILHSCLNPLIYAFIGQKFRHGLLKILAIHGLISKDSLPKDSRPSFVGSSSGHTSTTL
The experiment is described as follows: flow cytometry (GMFI) on fixed CXCR2 cells, chimeric antibody, goat anti-human PE. Here is the method:
as §1
On the technique in general: Flow cytometry measures light scatter and fluorescence of single cells or particles in a stream.

Experiment [3] has as its target T3, CXCR1 (human, UniProt P25024 1-350).
T3 construct: whole, on cells
T3 sequence (looked up): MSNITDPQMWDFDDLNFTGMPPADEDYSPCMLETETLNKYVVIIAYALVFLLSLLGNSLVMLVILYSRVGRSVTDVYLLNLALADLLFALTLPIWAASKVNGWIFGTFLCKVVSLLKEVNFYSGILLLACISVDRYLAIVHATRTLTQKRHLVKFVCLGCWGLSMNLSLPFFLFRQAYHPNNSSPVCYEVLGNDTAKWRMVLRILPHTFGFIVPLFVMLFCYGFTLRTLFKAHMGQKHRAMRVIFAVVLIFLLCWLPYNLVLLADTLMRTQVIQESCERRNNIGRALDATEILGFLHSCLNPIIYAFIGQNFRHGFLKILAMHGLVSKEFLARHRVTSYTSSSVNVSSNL
The experiment is described as follows: flow cytometry (GMFI) on fixed CXCR1 cells, chimeric antibody, goat anti-human PE. On the procedure:
as §1

For experiment [4], the target named is T4, cynomolgus monkey CXCR5 (cynomolgus monkey, UniProt P32302 1-372 (human entry)).
T4 construct: also called cynoCXCR5; NHP CXCR5
T4 chain: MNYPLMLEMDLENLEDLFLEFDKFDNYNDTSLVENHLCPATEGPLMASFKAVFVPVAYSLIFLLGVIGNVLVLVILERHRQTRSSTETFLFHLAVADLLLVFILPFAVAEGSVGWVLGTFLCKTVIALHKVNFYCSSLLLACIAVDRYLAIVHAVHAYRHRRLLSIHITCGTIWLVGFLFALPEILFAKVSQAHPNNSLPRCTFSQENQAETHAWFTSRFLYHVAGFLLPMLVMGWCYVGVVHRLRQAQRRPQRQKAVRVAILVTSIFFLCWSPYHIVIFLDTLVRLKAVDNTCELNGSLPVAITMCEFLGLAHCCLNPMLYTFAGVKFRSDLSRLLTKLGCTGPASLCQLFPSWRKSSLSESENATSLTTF
The experiment is described as follows: flow cytometry on cynoCXCR5-300.19 cells, fucosylated chimeric antibody.

Experiment [5] has as its target T5, human CXCR5 (human, UniProt P32302 1-372).
T5 construct: also called hCXCR5; C-X-C chemokine receptor type 5
T5 sequence: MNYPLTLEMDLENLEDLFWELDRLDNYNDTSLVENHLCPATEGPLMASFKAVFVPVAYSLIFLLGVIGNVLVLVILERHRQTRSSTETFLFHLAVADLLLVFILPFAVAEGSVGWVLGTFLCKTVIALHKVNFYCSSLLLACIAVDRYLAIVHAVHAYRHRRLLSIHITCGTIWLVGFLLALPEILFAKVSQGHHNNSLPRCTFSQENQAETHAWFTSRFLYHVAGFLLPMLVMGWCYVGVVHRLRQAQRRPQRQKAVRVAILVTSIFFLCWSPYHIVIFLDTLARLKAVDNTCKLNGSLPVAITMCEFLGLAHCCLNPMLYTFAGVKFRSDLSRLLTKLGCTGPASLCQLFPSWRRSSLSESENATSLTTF
Nature of the experiment: flow cytometry on Raji cells, fucosylated chimeric antibody. On the procedure:
The fucosylated chimeric antibodies were then purified using protein A columns. The apparent affinity (cell binding EC50s) of chimeric antibody binding to Raji cells was determined by flow cytometry using a FACSVerse Analyzer (BD Bioscience, Franklin Lakes, N.J.) and are shown in Table 3.

The target in experiment [6] is T6, CXCR3 (human, UniProt P49682 1-368).
T6 construct: whole, on cells
T6 sequence (looked up): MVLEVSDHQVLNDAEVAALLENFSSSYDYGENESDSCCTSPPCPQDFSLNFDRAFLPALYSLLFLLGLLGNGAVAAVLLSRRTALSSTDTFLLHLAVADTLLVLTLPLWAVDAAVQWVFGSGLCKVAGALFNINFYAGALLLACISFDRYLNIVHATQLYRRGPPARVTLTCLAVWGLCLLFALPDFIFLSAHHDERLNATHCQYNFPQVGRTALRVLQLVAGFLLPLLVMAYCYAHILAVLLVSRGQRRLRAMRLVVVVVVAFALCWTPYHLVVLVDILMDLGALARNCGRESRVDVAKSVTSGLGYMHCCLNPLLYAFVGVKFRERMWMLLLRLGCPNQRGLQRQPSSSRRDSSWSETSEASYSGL
Nature of the experiment: flow cytometry (GMFI) on fixed CXCR3 cells, chimeric antibody, goat anti-human PE. Here is the method: as §1

The target in experiment [7] is T5, human CXCR5. Nature of the experiment: flow cytometry, human PBMC B cells. Here is the method:
(§2) The apparent affinity for cell surface CXCR5 of chimeric and humanized CXCR5 fucosylated and afucosylated antibodies was assessed. More specifically, to determine the apparent affinity of chimeric and humanized CXCR5 antibodies to CXCR5-expressing cells, cell binding experiments were performed on human and cynomolgus monkey peripheral blood mononuclear cells (PBMCs) and human tonsillar mononuclear cells (TMCs). The apparent affinity of CXCR5 mab binding to CXCR5+ cells (B cells, bona fide Tfh cells, and circulating Tfh-like cells) was calculated as the EC50 of equilibrium binding titration curves in which the geometric mean fluorescence intensity (gMFI) of the antigen binding population was quantified by flow cytometry.
(§3) Following isolation, PBMCs were plated at a density of 1.0×10⁵ cells per well and CD4+ TMCs were plated at a density of 2.0×10⁵ cells per well in isolation buffer (PBS containing 1% FBS and 1 mM EDTA) in 96 well U-bottom plates. The plates were then centrifuged at 1500 rpm for 5 minutes at room temperature. PBMCs and CD4+ TMCs were resuspended in Fluorescence-activated cell sorting (FACS) buffer (PBS containing 1% FBS) containing human crystallized fragment Fc block (2 μL per well; Biolegend) and 4-fold serial dilutions of the antibodies (11-point dilution series, beginning at 5000 ng/mL for PBMCs and 312.5 ng/mL for CD4+ TMCs) and incubated on ice for 2 hours. PBMCs and CD4+ TMCs were then washed with FACS buffer 3 times and resuspended in 50-100 μL of FACs buffer containing fluorescent-conjugated antibodies for staining lymphocyte subsets and a fluorescent-conjugated secondary antibody against human Ig to detect CXCR5 monoclonal antibodies (mAbs). After incubation for 30 minutes at 4° C., PBMCs and CD4+ TMCs were washed with FACS buffer 2 times and resuspended in 125 μL of 0.5% paraformaldehyde (PFA) in PBS. Plates were stored at 4° C. until analysis by flow cytometry (BD LSRFortessa™ Cell Analyzer, BD Biosciences, Franklin Lakes, N.J.).
(§4) The cell binding titration curves were generated by plotting the gMFI of the antigen binding population against the log of CXCR5 antibody concentration. EC₅₀ values were determined using GraphPad Prism® (version 6.0, GraphPad Software, Inc, San Diego, Calif.) nonlinear-regression curve fits and a sigmoidal log of agonist dose-response model, according to the following equation

Experiment [8] concerns the target T4, cynomolgus monkey CXCR5. The experiment is described as follows: flow cytometry, cynomolgus PBMC B cells. Here is the method: as §2, §3, §4
Experiment [9] addresses T5, human CXCR5. The experiment is described as follows: cell-based or functional assay.

T1 sequence (P61073 whole entry): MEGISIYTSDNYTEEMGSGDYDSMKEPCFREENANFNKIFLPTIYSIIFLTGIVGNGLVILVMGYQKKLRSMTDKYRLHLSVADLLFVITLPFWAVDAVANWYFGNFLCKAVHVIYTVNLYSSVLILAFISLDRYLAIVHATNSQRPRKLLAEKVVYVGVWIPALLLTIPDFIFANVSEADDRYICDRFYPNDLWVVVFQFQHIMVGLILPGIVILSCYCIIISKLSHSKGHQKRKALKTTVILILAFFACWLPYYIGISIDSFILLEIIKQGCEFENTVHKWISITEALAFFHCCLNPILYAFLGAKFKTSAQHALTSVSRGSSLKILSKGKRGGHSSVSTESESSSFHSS

B1: chimeric 5H7 (antibody, human IgG1, kappa, V domains shown)
VH: EVKLVESGGGLVQPGDSLRLSCATSGFTFTDFYMSWVRQPPGRALEWLGFIRNKANGYTTEYSASVKGRFTISRDNSQSILYLQMNTLRAGDSATYYCVRVYGSTLHYWGQGTILTVSS
VL: DVVVTQSPDSLAVSLGQRATISCRASESVEYHGTSLMHWYQQKPGQPPKLLIYAASNVESGVPARFSGSGSGTDFSLNIHPVEEGDVSMFFCQQSRKVPWTFGGGTKLEIKR
notes: mouse V regions on human IgG1/kappa; fucosylated; also called 5H7 (chimeric)
For the molecule B1, the binding result in experiment [1], in experiment [2], in experiment [3] and in experiment [6] was “no binding (tested: 5 or 10 µg/ml (not on the sheet))” each time. The EC50 in experiment [4] is 0.0603 nM; in experiment [5] it was 0.0421 nM.

B2: Chimeric 41A10 (antibody, human IgG1, kappa, V domains shown)
VH: EVQLVESGGDLVKPGGSLKLSCAASGFTFRSYGMSWVRQTPDKRLEWVATISSGGTYTFYPDILKGRITISRDNAKNTLYLQMSNLKSEDTAMYYCARRGEDYRGALEHWGQGTSVTVSS
VL: QIVLTQSPAVMSASPGEKVTMTCSASSSVNYIHWYQQKSGTSPKRWIYETSRLASGVPVRFSGSGSGTSYSLTISTMEAEDAATYYCQQWSSNPLTFGAGTKLELKR
notes: mouse V regions on human IgG1/kappa; fucosylated; also called 41A10 (chimeric)
For the molecule B2, the EC50 in [7] is 0.161 nM; in [8] it was 0.549 nM; in experiment [4] it was 0.831 nM; in experiment [5] it was 0.39 nM. Moreover, the binding result in [2], in experiment [3] and in [6] was “no binding (tested: 5 or 10 µg/ml (not on the sheet))” in each case. Moreover, the “ADCC Activity Average EC50, Human B Cells” value in experiment [9] turned out to be 11.7 nM.

The term EC50 denotes the midpoint of the concentration-response curve.
